Source: patent publication US6998239B1, “Method for identifying a modulator of the binding of CCX CKR polypeptide to a chemokine” (ChemoCentryx, Inc., priority 1999, dated 2006)
Entries after “also recorded” stand apart in the source; their conditions may differ.

Key:
CCX CKR [1] = molecular target: T1, CCX CKR (Homo sapiens, UniProt Q9NPB9); test: Ligand binding fingerprint: displacement of 125I-ELC from CCX CKR stable transfectants by cold chemokines; conditions: cold competitor 200 nM; human and murine ELC, SLC, TECK; comparable with 125I-TECK
T1 construct: Full length CCX CKR expression constructs were made in pIRESpuro expression vector; expressed in transfected cells
T1 sequence (Q9NPB9 1-350): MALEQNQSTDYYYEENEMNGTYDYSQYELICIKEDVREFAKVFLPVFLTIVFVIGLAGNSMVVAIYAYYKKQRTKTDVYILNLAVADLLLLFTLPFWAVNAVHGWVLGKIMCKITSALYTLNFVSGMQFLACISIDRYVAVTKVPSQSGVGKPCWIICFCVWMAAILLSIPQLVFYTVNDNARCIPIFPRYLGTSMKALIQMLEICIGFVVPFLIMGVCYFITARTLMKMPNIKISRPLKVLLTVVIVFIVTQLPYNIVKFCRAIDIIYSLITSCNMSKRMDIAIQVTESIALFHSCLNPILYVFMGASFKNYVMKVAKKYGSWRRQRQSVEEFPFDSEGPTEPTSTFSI
Text: In one embodiment, binding is detected as described by Dairaghi et al., 1997, J. Biol. Chem. 272:28206-209 (incorporated by reference in its entirety for all purposes) substituting CCX CKR transfectants for the CCR3 transfectants). In one embodiment, binding is detected using the filter based technique described by Dairaghi et al., 1999, J. Biol. Chem. 274:2156 (incorporated by reference in its entirety for all purposes), e.g., as shown in FIG. 4. Briefly, this technology employs expanded, efficiency-maximized radioligand binding utilizing filtration protocols. […] Filters are washed twice (25 mM HEPES, 500 mM NaCl, 1 mM CaCl25 mM MgCl2, adjusted to pH 7.1) and scintillant (e.g., MicroScint 20; 50 μl) is added to dried filters and counted (e.g., using a Packard Topcount scintillation counter). The competition dose-response curves is analyzed by standard methods to determine IC50 values (e.g., using GraphPad Prism software (San Diego, Calif.)). […]
In order to rapidly and thoroughly define a given chemokine receptor's ligand binding fingerprint, we have established an approach to comprehensively profile chemokine receptors using a large array of purified chemokines and chemokine variants. […] Employing radioligand binding of ^125I-labeled-ELC or ^125I-TECK to CCX CKR stable transfectants, chemokine specificity for the new receptor was determined. […]

CCX CKR [2] = molecular target: T1, CCX CKR; test: Radioligand binding competition with Scatchard transformation (binding constants); conditions: for Affinity class of CCX CKR ligands (summary of Examples 4-6): summary statement
Text: In one embodiment, binding is detected as described by Dairaghi et al., 1997, J. Biol. Chem. 272:28206-209 (incorporated by reference in its entirety for all purposes) substituting CCX CKR transfectants for the CCR3 transfectants). In one embodiment, binding is detected using the filter based technique described by Dairaghi et al., 1999, J. Biol. Chem. 274:2156 (incorporated by reference in its entirety for all purposes), e.g., as shown in FIG. 4. Briefly, this technology employs expanded, efficiency-maximized radioligand binding utilizing filtration protocols. In these assays, 1×10^5 CCXCKR-293 HEK cells are incubated with […] (MlP3beta) (final concentration of ˜0.05 nM) in the presence of unlabeled chemokine for 3 h at 4° C. in 25 mM HEPES, 140 mM NaCl, 1 mM CaCl2, 5 mM MgCl2, and 0.2% bovine serum albumin, adjusted to pH 7.1. Reactions were aspirated onto PEI-treated GF/B glass filters using a cell harvester (Packard). Filters are washed twice (25 mM HEPES, 500 mM NaCl, 1 mM CaCl25 mM MgCl2, adjusted to pH 7.1) and scintillant (e.g., MicroScint 20; 50 μl) is added to dried filters and counted (e.g., using a Packard Topcount scintillation counter). The competition dose-response curves is analyzed by standard methods to determine IC50 values (e.g., using GraphPad Prism software (San Diego, Calif.)). Additionally, a Scatchard transformation can be used to estimate the receptor sites per cell (e.g., using WaveMetrics Igor software (Lake Oswego, Oreg.)).
Binding analysis was carried out using efficiency-maximized radioligand binding utilizing filtration protocols designated “Displace Max” (Dairaghi et al., 1999, J Biol. Chem. 274:21569). […]
The binding interactions identified in the primary screen were examined quantitatively by extensive radioligand binding competition to CCX CKR stable transfectants and Scatchard transformation of the displacement data (FIG. 4B). […]

CCX CKR [3] = molecular target: T1, CCX CKR; test: Ligand induced internalization of CCX CKR in 293 F-CCR10 cells (FACS, anti-Flag); type: cell-based; conditions: 100 nM chemokine, 37° C., 15 or 45 minutes
Method: 293 cells transfected with the Flag-CCX CKR fusion plasmid (i.e., “293 F-CCR10 cells;” see Example 3) were incubated at 37° C. with varying concentrations of chemokines (ELC, SLC, TECK, murine CTACK and MCP4) for 15 or 45 minutes. Following incubation, the cells were washed and fixed with 3% paraformaldehyde for 15 minutes on ice. The cells were stained with anti-Flag M1 antibody, followed by a PE-conjugated anti-mouse secondary antibody. FACS analysis were then carried out to determine surface expression of the receptor.
Results: A reduction in antibody binding in the presence of ligand is an indication of ligand-induced internalization of the receptor.

CCX CKR [4] = molecular target: T1, CCX CKR; test: Small molecule screen: inhibition of 125I-ELC binding to HEK293 cells expressing CCX CKR; conditions: for Effect on binding between ELC and CCX CKR: 125I-ELC ~25-100 pM, compounds 1-5 μg/mL, ~3 hours at 4° C., HEK293 Flag-CCX CKR cells; for Type of modulator of CCX CKR function: Table 1, class given beside the label
Method: Source plates of chemical libraries were obtained from commercial vendors and contained individual compounds at 5 mg/mL in DMSO, or in some instances, at 1 mg/mL. From these, multiple compound plates containing 10 compounds in each well were made, and these were diluted in 20% DMSO to a concentration of 50 μg/mL (10 μg/mL for those beginning at 1 mg/mL). An aliquot of 20 μL of each mixture was put into the test plates, which were stored frozen until use.
HEK293 cells stably expressing the M1 flag epitope-tagged CCX CKR (described in Example 3, supra) were cultured in DMEM-10% FBS, and harvested when the concentration was between 0.5-1.0×10^6 cells/mL. The cells were centrifuged and resuspended in assay buffer (20 mM HEPES, 80 mM NaCl, 1 mM CaCl2, 5 mM MgCl2, and with 0.2% bovine serum albumin, pH 7.4) to a concentration of 5.6×10^6 cells/mL.
Using a Multi-Probe automated system, 0.09 mL of cells was added to each well of the assay test plates containing the compounds, followed by 0.09 mL of ^125I-MIPβ3/ELC (from Amersham Pharmacia Biotech) diluted in assay buffer (final concentration ˜25-100 pM, with ˜50,000 cpm per well). The final concentration of the compounds was 1-5 μg/mL each. The plates were sealed and incubated for approximately 3 hours at 4° C. on a shaker platform. The assay plates were harvested using Packard GP/B filter plates, pre-soaked in PEI solution, on the vacuum harvest apparatus. Scintillation fluid (50 μL) was added to each of the wells, the plates were sealed and counted in a Top Count scintillation counter. Control wells contained either diluent only (for total counts) or excess ELC (1 μg/mL, for non-specific binding) and were used to calculate the percent of total inhibition of ELC binding for each set of compounds.

CCX CKR [5] = molecular target: T1, CCX CKR; test: Adhesion of HEK293-CCX CKR cells to immobilized ELC-stalkokine and competition by soluble chemokines; type: cell-based; conditions: 5-10 ug/ml soluble recombinant chemokine as competitor
Text: “Stalkokine” technology was used to :identify the chemokines bound by the CCX CKR. Briefly, immobilized native chemokines alone are incapable of capturing cells bearing cognate receptors (Imai et al., 1997, Cell 91:521). We have developed non-native chemokine structures, stalkokines, comprising chemokine moieties engineered as N-terminal attachments to extended modified mucins (Bazan et al., 1997, Nature 385:640). In one embodiment, stalkokines, harvested in the supernatants of HEK293 cells after transient transfection, are anchored to solid substrates via antibodies against carrier domains (e.g. poly-His epitopes) engineered to the carboxyl terminus, leaving the chemokine domain free to interact with candidate orphan receptors.
To determine ligand binding to CCX CKR, HEK293-CCX CKR cells were used to interrogate chemokine ‘stalkokines’ (SK), i.e., molecules in which discrete chemokine domains were engineered to be tethered to the end of an extended stalk structure. […] In all cases, nonadherent cells were removed by washing in PBS; remaining adherent cells were fixed with 1% glutaraldehyde, photoimaged and counted. […]

CCX CKR [6] = molecular target: T1, CCX CKR; test: Preliminary chemotaxis analysis of CCX CKR transfectants; type: cell-based; conditions: preliminary chemotaxis analyses, not shown
CCX CKR [7] = molecular target: T1, CCX CKR; test: Homologous competition binding of radiolabeled chemokine on HEK293-CCX CKR cells
Text: Furthermore ELC-SK mediated adhesion was abolished in the presence of soluble native ELC as a competitor (FIG. 3A, top row). […] Moreover, radiolabeled ELC was used in a traditional homologous competition assay in the presence of increasing concentrations of unlabeled ELC. […] Taken together, the stalkokine-based adhesion and radiolabeled ligand binding/homologous competition assays indicate that CCX CKR is a new chemokine receptor that bound a novel compliment of chemokines.

With BLC: CXC chemokine BLC the “Binding to CCX CKR by displacement of 125I-labeled ELC” value (CCX CKR [1]) was “lower affinity”, the “Affinity for CCX CKR in multipoint competition, in words” value (CCX CKR [2]; competition against 125I-ELC) was “of lesser affinity, also bound well” and the “Affinity class of CCX CKR ligands (summary of Examples 4-6)” value (CCX CKR [2]) was “lower affinity”.
For “MCP4: chemokine used as non-binding control in internalization assay”, the “Internalization of the receptor” value (CCX CKR [3]) was “did not cause internalization”.
With CC1CCCCN1CCCN(Cc1ccc(OCc2ccccc2)cc1)C(=O)Nc1ccc(Cl)c(Cl)c1 (centres unmarked) [Compound I] the “Effect on binding between ELC and CCX CKR” value (CCX CKR [4]) was “inhibit binding” and the “Type of modulator of CCX CKR function” value (CCX CKR [4]) was “Com- pound I (antago- nist)”.
In the case of CCC(c1nc2ccccc2c(=O)n1C)N(Cc1ccco1)C(=O)Nc1cccc(C(F)(F)F)c1 (centres unmarked) [Compound III], the “Effect on binding between ELC and CCX CKR” value (CCX CKR [4]) is reported as “enhance binding” and the “Type of modulator of CCX CKR function” value (CCX CKR [4]) is reported as “Com- pound III (agonist)”.
For “MCP-3: soluble chemokine, representative of non-competing chemokines”, the “Effect of soluble chemokine on ELC-SK mediated adhesion of HEK293-CCX CKR cells” value (CCX CKR [5]) was “no diminution in adhesion and not”.
“ELC: EBII ligand chemokine, recombinant chemokine from R&D Systems” was tested, and the “Effect of soluble chemokine on ELC-SK mediated adhesion of HEK293-CCX CKR cells” value (CCX CKR [5]) was “ablation of adhesion; also recorded: abolished”, the “Binding to CCX CKR by displacement of 125I-labeled ELC” value (CCX CKR [1]) was “bound well” and the “Migration of CCX CKR transfectants in response to chemokine” value (CCX CKR [6]) was “moderate migration”. For the same molecule, the “Internalization of the receptor” value (CCX CKR [3]) was “Internalization of the receptor was observed”, the “Binding of radiolabeled ELC, homologous competition with unlabeled ELC” value (CCX CKR [7]) was “significant binding” and the “Affinity class of CCX CKR ligands (summary of Examples 4-6)” value (CCX CKR [2]) was “high affinity”.
In the case of CC1CCCCN1CCCN(Cc1ccc(OCc2ccccc2)cc1)C(=O)NC12CCCC3CCC1CC2C3 (centres unmarked) [Compound II], the “Effect on binding between ELC and CCX CKR” value (CCX CKR [4]) is reported as “inhibit binding” and the “Type of modulator of CCX CKR function” value (CCX CKR [4]) is reported as “Com- pound II (antago- nist)”.
